Data reported in article doi:10.1101/679431 (bioRxiv, 2019).

B1: endogenous TRAP1 (natural protein)
chain: STQTAEDKEEPLHSIISSTESVQGSTSKHEFQAETKKLLDIVARSLYSEKEVFIRELISNASDALEKLRHKLVSDGQALPEMEIHLQTNAEKGTITIQDTGIGMTQEELVSNLGTIARSGSKAFLDALQNQAEASSKIIGQFGVGFYSAFMVADRVEVYSRSAAPGSLGYQWLSDGSGVFEIAEASGVRTGTKIIIHLKSDCKEFSSEARVRDVVTKYSNFVSFPLYLNGRRMNTLQAIWMMDPKDVREWQHEEFYRYVAQAHDKPRYTLHYKTDAPLNIRSIFYVPDMKPSMFDVSRELGSSVALYSRKVLIQTKATDILPKWLRFIRGVVDSEDIPLNLSRELLQESALIRKLRDVLQQRLIKFFIDQSKKDAEKYAKFFEDYGLFMREGIVTATEQEVKEDIAKLLRYESSALPSGQLTSLSEYASRMRAGTRNIYYLCAPNRHLAEHSPYYEAMKKKDTEVLFCFEQFDELTLLHLREFDKKKLISVETDIVVDHYKEEKFEDRSPAAECLSEKETEELMAWMRNVLGSRVTNVKVTLRLDTHPAMVTVLEMGAARHFLRMQQLAKTQEERAQLLQPTLEINPRHALIKKLNQLRASEPGLAQLLVDQIYENAMIAAGLVDDPRAMVGRLNELLVKALERH
B2: TRAP1-GST fusion protein (natural protein)
chain: STQTAEDKEEPLHSIISSTESVQGSTSKHEFQAETKKLLDIVARSLYSEKEVFIRELISNASDALEKLRHKLVSDGQALPEMEIHLQTNAEKGTITIQDTGIGMTQEELVSNLGTIARSGSKAFLDALQNQAEASSKIIGQFGVGFYSAFMVADRVEVYSRSAAPGSLGYQWLSDGSGVFEIAEASGVRTGTKIIIHLKSDCKEFSSEARVRDVVTKYSNFVSFPLYLNGRRMNTLQAIWMMDPKDVREWQHEEFYRYVAQAHDKPRYTLHYKTDAPLNIRSIFYVPDMKPSMFDVSRELGSSVALYSRKVLIQTKATDILPKWLRFIRGVVDSEDIPLNLSRELLQESALIRKLRDVLQQRLIKFFIDQSKKDAEKYAKFFEDYGLFMREGIVTATEQEVKEDIAKLLRYESSALPSGQLTSLSEYASRMRAGTRNIYYLCAPNRHLAEHSPYYEAMKKKDTEVLFCFEQFDELTLLHLREFDKKKLISVETDIVVDHYKEEKFEDRSPAAECLSEKETEELMAWMRNVLGSRVTNVKVTLRLDTHPAMVTVLEMGAARHFLRMQQLAKTQEERAQLLQPTLEINPRHALIKKLNQLRASEPGLAQLLVDQIYENAMIAAGLVDDPRAMVGRLNELLVKALERH

How the values were obtained:
native gel or EMSA = molecular target: the molecule itself; assay: native gel or EMSA
[1] = molecular target: the molecule itself; assay: affinity purification with mass spectrometry + native gel or EMSA

Protein	stoichiometry N (native gel or EMSA)	stoichiometry N [1]
B1	4	–
B2	–	4
